Reference: publication PMC9814641, “Microbial rhodoquinone biosynthesis proceeds via an atypical RquA-catalyzed amino transfer from S-adenosyl-L-methionine to ubiquinone” (Communications Chemistry, 2022)
Each block holds one molecule with its values, some of them ahead of it.

Legend:
[1] = molecular target: T1, RquA (Rhodospirillum rubrum, UniProt Q2RPC3); test: intrinsic tryptophan fluorescence titration, one-site fit; also Michaelis-Menten kinetics (apparent Km […] with UQ3 and Mn2+); type: binding
T1 construct: gene Rru_A3227

[2] = molecular target: RquA (TEV-cleaved from MBP-RquA) (R. rubrum); test: SEC; calibrated HiLoad 16/60 Superdex 200; TRIS (20 mM), NaCl (200 mM), TCEP (1 mM), 0.1% Brij-35, pH 8.0; mass estimated from the elution volume
[3] = substrate: COC1=C(OC)C(=O)C(C/C=C(\C)CC/C=C(\C)CCC=C(C)C)=C(C)C1=O; test: LC-MS enzyme assay of conversion to RQ3, Michaelis-Menten kinetics (apparent Km); type: biochemical, Rhodospirillum rubrum; conditions: Mn2+; SAM (co-substrate)

Kd [1]: 2220 ± 1020 µM
Molecule: C[S+](CC[C@H](N)C(=O)[O-])C[C@H]1O[C@@H](n2cnc3c(N)ncnc32)[C@H](O)[C@@H]1O (stereo partly drawn) [compound 3, S-adenosyl-L-methionine]

stoichiometry N [2]: 2
Molecule: RquA (TEV-cleaved from MBP-RquA) (enzyme)

B1: RquA (Rhodospirillum rubrum ATCC 11170) (protein)
chain: MTKHQGAVRPVGPEESAFPASQSFSETGPVVADPIKPLPAYLQETYTWAYLDPRNVEWLDHEIVVNAILWGNMTRLMATAFKEFEPGQEVLQPACVYGPFSRHLAERLGPEGYLEVHDVAPVQIHHTRRKVEGLPQVTLRRADAADPLDRDFDGVCCFFLLHEVPDHVKSKIVDNMLSAVRPGGKVVFVDYHRYAALHPLRPIMAFVFRTLEPFAWGLCTREISDFASDAGSFTWRKETYFGGLYQKVVAERRA
notes: MBP-RquA
Km [3]: 0.155 ± 0.028 µM
